Results: PMC5737116, “Biochemical Properties of Human D-Amino Acid Oxidase” (Frontiers in Molecular Biosciences, 2017)

How the values were obtained:
Conditions in all cases: other: apparent, 21% oxygen saturation, pH 8.5, 25°C
[1] = test system: N[C@H](Cc1ccc(O)c(O)c1)C(=O)O; assay: purified protein, by the assay type
N[C@@H]1CON=C1O = test system: T1, N[C@@H]1CON=C1O; assay: Oxygen-consumption activity assay, apparent kinetic parameters (substrate specificity); assay type: biochemical, human
T1 construct: made in house; host or cells: E. coli

N[C@H](CS)C(=O)O = test system: T2, N[C@H](CS)C(=O)O; assay: as above; assay type: biochemical, human
T2 construct: made in house; host or cells: E. coli

Sequence of human DAAO (Homo sapiens) (chain, as listed by the source): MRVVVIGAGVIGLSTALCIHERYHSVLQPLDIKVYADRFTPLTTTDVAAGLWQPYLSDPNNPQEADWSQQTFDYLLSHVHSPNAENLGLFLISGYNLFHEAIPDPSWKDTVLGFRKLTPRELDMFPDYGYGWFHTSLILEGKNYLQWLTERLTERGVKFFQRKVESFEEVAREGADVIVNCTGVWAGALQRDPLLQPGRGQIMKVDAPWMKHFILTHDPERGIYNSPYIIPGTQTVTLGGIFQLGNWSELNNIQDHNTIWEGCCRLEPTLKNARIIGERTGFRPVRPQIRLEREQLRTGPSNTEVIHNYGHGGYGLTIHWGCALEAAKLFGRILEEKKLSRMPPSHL

For human DAAO (Homo sapiens), the Km [1] was 6 mM, the kcat [1] was 40.5 ± 5.1 [21.7]^d s^−1 and the kcat/Km [1] was 6.75 [14.4]^d mM^−1 x s^−1. For the same substance, the Km (N[C@@H]1CON=C1O) was 83.5 ± 15.0 mM, the kcat (N[C@@H]1CON=C1O) was 0.77 ± 0.05 s⁻¹ and the kcat/Km (N[C@@H]1CON=C1O) was 9 M⁻¹ s⁻¹. For the same substance, the Km (N[C@H](CS)C(=O)O) was 0.6 ± 0.1 mM, the kcat (N[C@H](CS)C(=O)O) was 8.6 ± 0.2 s⁻¹ and the kcat/Km (N[C@H](CS)C(=O)O) was 14600 M⁻¹ s⁻¹.
